Assay results as given in patent publication US20260274985A1 (MYTHIC THERAPEUTICS, published 2026).
Blank lines part the entries; values can stand above or below the binder they belong to.

Key:
[1] = target: T1, Human TROP2 Protein, His Tag (Acro Biosystems) (human, UniProt P09758 27-274); assay: BLI (Octet)
T1 construct: not shown: His tag
T1 sequence (looked up): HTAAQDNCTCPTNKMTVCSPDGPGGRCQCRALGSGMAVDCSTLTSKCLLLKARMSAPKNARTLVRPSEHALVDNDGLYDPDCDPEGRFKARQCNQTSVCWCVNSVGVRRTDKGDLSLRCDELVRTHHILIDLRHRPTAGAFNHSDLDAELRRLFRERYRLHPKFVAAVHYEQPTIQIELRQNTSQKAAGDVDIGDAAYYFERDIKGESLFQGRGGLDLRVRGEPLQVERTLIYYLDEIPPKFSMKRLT

[2] = target: T2, TROP2 on TROP2-positive NCI-H1975 cells (human, UniProt P09758 27-323); assay: cell-based or functional assay
T2 sequence: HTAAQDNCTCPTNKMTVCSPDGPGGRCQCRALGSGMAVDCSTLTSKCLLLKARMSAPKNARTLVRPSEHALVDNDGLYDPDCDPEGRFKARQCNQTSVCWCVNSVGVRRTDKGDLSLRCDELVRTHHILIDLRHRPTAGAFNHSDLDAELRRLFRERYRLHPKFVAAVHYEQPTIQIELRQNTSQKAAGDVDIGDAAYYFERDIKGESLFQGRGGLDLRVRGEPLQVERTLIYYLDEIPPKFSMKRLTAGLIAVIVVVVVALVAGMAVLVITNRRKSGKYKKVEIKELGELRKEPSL

[3] = target: T3, Human TROP2 Protein, His Tag (Acro Biosystems) (human, UniProt P09758 27-274); assay: BLI (Octet); remark: listed apart in the source
T3 construct: not shown: His tag
T3 sequence (looked up): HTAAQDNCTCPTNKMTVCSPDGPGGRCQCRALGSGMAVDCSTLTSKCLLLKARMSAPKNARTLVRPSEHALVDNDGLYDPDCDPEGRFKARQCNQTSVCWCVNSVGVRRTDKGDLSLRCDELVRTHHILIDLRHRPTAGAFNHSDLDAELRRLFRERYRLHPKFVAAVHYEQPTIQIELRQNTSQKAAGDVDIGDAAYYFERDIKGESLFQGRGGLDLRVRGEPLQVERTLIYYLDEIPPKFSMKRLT

[4] = target: T4, Human TROP2 Protein, His Tag (Acro Biosystems) (human, UniProt P09758 27-274); assay: BLI (Octet) [2/2]
T4 construct: also called TACSTD2; not shown: His tag
T4 sequence (looked up): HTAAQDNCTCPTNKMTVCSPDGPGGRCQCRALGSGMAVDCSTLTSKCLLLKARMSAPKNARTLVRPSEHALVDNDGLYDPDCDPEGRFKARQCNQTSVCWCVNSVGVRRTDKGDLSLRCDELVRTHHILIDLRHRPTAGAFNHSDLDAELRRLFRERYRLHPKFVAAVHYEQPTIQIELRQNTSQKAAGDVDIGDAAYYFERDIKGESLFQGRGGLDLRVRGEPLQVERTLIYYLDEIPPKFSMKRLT

binding result [1]: no binding (tested: 50 nM)
B1: MYT13295 (antibody, V domains shown)
VH: QVQLQESGPGLVKPSETLSLTCTVSGGSISSYGVHWIRQPPGKGLEWIGVIWTSGVTDYNSALMGRVTISVDTSKNQFSLKLSSVTAADTAVYYCARDGDYDRYTHDYWGQGTLVTVSS
VL: DIVMTQSPDSLAVSLGERATINCRASKSVSTSGYSYMHWYQQKPGQPPKLLIYLASNLESGVPDRFSGSGSGTDFTLTISSLQAEDVAVYYCQASRELPYTFGQGTKLEIK
notes: Full-length IgG from Expi293 supernatant; also called hu7E6SVG heavy chain and light chain pairing variant

binding result [1]: no binding (tested: 50 nM)
B2: MYT13310 (antibody, V domains shown)
VH: QVQLQESGPGLVKPSETLSLTCTVSGGSISSYGVHWIRQPPGKGLEWIGVIWTSGVTDYNSALMGRVTISVDTSKNQFSLKLSSVTAADTAVYYCARDGDYDRYTHDYWGQGTLVTVSS
VL: DIVMTQSPDSLAVSLGERATINCRASKSVSTSGYSYMHWYQQKPGQPPKLLIYLASNLHSGVPDRFSGSGSGTDFTLTISSLQAEDVAVYYCQASRELPYTFGQGTKLEIK
notes: as for B1

binding result [1]: no binding (tested: 50 nM)
B3: MYT13315 (antibody, V domains shown)
VH: QVQLQESGPGLVKPSETLSLTCTVSGGSISSYGVHWIRQPPGKGLEWIGVIWTSGVTDYNSALMGRVTISVDTSKNQFSLKLSSVTAADTAVYYCARDGDYDRYTHDYWGQGTLVTVSS
VL: DIVMTQSPDSLAVSLGERATINCRASKSVSTSGYSYMHWYQQKPGQPPKLLIYLASNLHSGVPDRFSGSGSGTDFTLTISSLQAEDVAVYYCQHSRELPYHFGQGTKLEIK
notes: as for B1

binding result [1]: no binding (tested: 50 nM)
B4: MYT13305 (antibody, V domains shown)
VH: QVQLQESGPGLVKPSETLSLTCTVSGGSISSYGVHWIRQPPGKGLEWIGVIWTSGVTDYNSALMGRVTISVDTSKNQFSLKLSSVTAADTAVYYCARDGDYDRYTHDYWGQGTLVTVSS
VL: DIVMTQSPDSLAVSLGERATINCRASKSVSTSGYSYMHWYQQKPGQPPKLLIYLASNLESGVPDRFSGSGSGTDFTLTISSLQAEDVAVYYCQHSRELPYHFGQGTKLEIK
notes: as for B1

B5: 167-DXd (antibody, IgG1, V domains shown)
VH: QVQLQQSGSELKKPGASVKVSCKASGYTFTNYGMNWVKQAPGQGLKWMGWINTYTGEPTYTDHFKGRFAFSLDTSVSTAYLQISSLKADDTAVYFCARGGFGSSYWYFDVWGQGSLVTVSS
VL: DIQLTQSPSSLSASVGDRVSITCKASQDVHIAHAWYQQKPGKAPKLLIYSASYRYTGVPDRFSGSGSGTDFTLTISSLQPEDFAVYYCQQHYITPLTFGAGTKVEIK
modifications: maleimide based GGFG-DXd conjugated to hinge cysteines, average DAR of about 4
% efficiency @ 100 nM ADC (cytotoxicity in NCI-H1975 cells) [2]: 4.86%

B6: 165-DXd (antibody, IgG1, V domains shown)
VH: QVQLQQSGSELKKPGASVKVSCKASGYTFTNYGMNWVKQAPGQGLKWMGWINTYTGEPTYTDDFKGRFAFSLDTSVSTAYLQISSLKADDTAVYFCARGGFGSSYWYFDVWGQGSLVTVSS
VL: DIQLTQSPSSLSASVGDRVSITCKASQDVSIAVAWYQQKPGKAPKLLIYSASYRYTGVPDRFSGSGSGTDFTLTISSLQPEDFAVYYCQQHYITPLTFGAGTKVEIK
modifications: maleimide based GGFG-DXd conjugated to hinge cysteines, average DAR of about 4
% efficiency @ 100 nM ADC (cytotoxicity in NCI-H1975 cells) [2]: 1.47%

binding result [3]: binds
B7: MYT12392 (antibody, V domains shown)
VH: QVQLVQSGAEVKKPGASVKVSCKASGYTFTTAGMQWVRQAPGQGLEWMGWINTHSGVPKYAEDFKGRVTISADTSTSTAYLQLSSLKSEDTAVYYCARSGFGSSYWYFDVWGQGTLVTVSS
VL: DIQMTQSPSSLSASVGDRVTITCKASQDVSTAVAWYQQKPGKAPKLLIYSHHYRYTGVPSRFSGSGSGTDFTLTISSLQPEDFAVYYCQQHYITPLTFGQGTKLEIK
notes: datopotamab VL 51, 52 substituted

binding result [4]: binds
B8: MYT13253 (antibody, V domains shown)
VH: QVQLQQSGSELKKPGASVKVSCKASGYTFTNYGMNWVKQAPGQGLKWMGWINTYTGEPTYTDDHKGRFAFSLDTSVSTAYLQISSLKADDTAVYFCARGGFGSSYWYFDVWGQGSLVTVSS
VL: DIQLTQSPSSLSASVGDRVSITCKASQDVSIAVAWYQQKPGKAPKLLIYSAHYRYTGVPDRFSGSGSGTDFTLTISSLQPEDFAVYYCQQHYHTPLTFGAGTKVEIK
notes: Sacituzumab HC-LC pairing variant

binding result [4]: binds
B9: MYT13254 (antibody, V domains shown)
VH: QVQLQQSGSELKKPGASVKVSCKASGYTFTNYGMNWVKQAPGQGLKWMGWINTYTGEPTYTDDFHGRFAFSLDTSVSTAYLQISSLKADDTAVYFCARGGFGSSYWYFDVWGQGSLVTVSS
VL: DIQLTQSPSSLSASVGDRVSITCKASQDVSIAVAWYQQKPGKAPKLLIYSAHYRYTGVPDRFSGSGSGTDFTLTISSLQPEDFAVYYCQQHYHTPLTFGAGTKVEIK
notes: as for B8

B10: 168-DXd (antibody, IgG1, V domains shown)
VH: QVQLQQSGSELKKPGASVKVSCKASGYTFTNYGMNWVKQAPGQGLKWMGWINTYTGEPTYTDDHKGRFAFSLDTSVSTAYLQISSLKADDTAVYFCARGGFGSSYWYFDVWGQGSLVTVSS
VL: DIQLTQSPSSLSASVGDRVSITCKASQDVHIAVAWYQQKPGKAPKLLIYSHSYRYTGVPDRFSGSGSGTDFTLTISSLQPEDFAVYYCQQHYHTPLTFGAGTKVEIK
modifications: maleimide based GGFG-DXd conjugated to hinge cysteines, average DAR of about 4
% efficiency @ 100 nM ADC (cytotoxicity in NCI-H1975 cells) [2]: 7.32%

binding result [3]: binds
B11: MYT12404 (antibody, V domains shown)
VH: QVQLVQSGAEVKKPGASVKVSCKASGYTFTTAGMQWVRQAPGQGLEWMGWINTHSGVPKYAEDFKGRVTISADTSTSTAYLQLSSLKSEDTAVYYCARSGFGSSYWYFDVWGQGTLVTVSS
VL: DIQMTQSPSSLSASVGDRVTITCKASQDVSTAVAWYQQKPGKAPKLLIYSHHYRYTGVPSRFSGSGSGTDFTLTISSLQPEDFAVYYCHQHYITPLTFGQGTKLEIK
notes: datopotamab VL 51, 52, 89 substituted

binding result [3]: binds
B12: MYT12398 (antibody, V domains shown)
VH: QVQLVQSGAEVKKPGASVKVSCKASGYTFTTAGMQWVRQAPGQGLEWMGWINTHSGVPKYAEDFKGRVTISADTSTSTAYLQLSSLKSEDTAVYYCARSGFGSSYWYFDVWGQGTLVTVSS
VL: DIQMTQSPSSLSASVGDRVTITCKASQHVSTAVAWYQQKPGKAPKLLIYSHHYRYTGVPSRFSGSGSGTDFTLTISSLQPEDFAVYYCQQHYITPLTFGQGTKLEIK
notes: datopotamab VL 28, 51, 52 substituted

binding result [4]: binds
B13: MYT13252 (antibody, V domains shown)
VH: QVQLQQSGSELKKPGASVKVSCKASGYTFTNYGMNWVKQAPGQGLKWMGWINTYTGEPTYTDHFKGRFAFSLDTSVSTAYLQISSLKADDTAVYFCARGGFGSSYWYFDVWGQGSLVTVSS
VL: DIQLTQSPSSLSASVGDRVSITCKASQDVSIAVAWYQQKPGKAPKLLIYSAHYRYTGVPDRFSGSGSGTDFTLTISSLQPEDFAVYYCQQHYHTPLTFGAGTKVEIK
notes: as for B8

binding result [4]: binds
B14: MYT13255 (antibody, V domains shown)
VH: QVQLQQSGSELKKPGASVKVSCKASGYTFTNYGMNWVKQAPGQGLKWMGWINTYTGEPTYTDDFKHRFAFSLDTSVSTAYLQISSLKADDTAVYFCARGGFGSSYWYFDVWGQGSLVTVSS
VL: DIQLTQSPSSLSASVGDRVSITCKASQDVSIAVAWYQQKPGKAPKLLIYSAHYRYTGVPDRFSGSGSGTDFTLTISSLQPEDFAVYYCQQHYHTPLTFGAGTKVEIK
notes: as for B8

binding result [3]: binds
B15: MYT12393 (antibody, V domains shown)
VH: QVQLVQSGAEVKKPGASVKVSCKASGYTFTTAGMQWVRQAPGQGLEWMGWINTHSGVPKYAEDFKGRVTISADTSTSTAYLQLSSLKSEDTAVYYCARSGFGSSYWYFDVWGQGTLVTVSS
VL: DIQMTQSPSSLSASVGDRVTITCKASQDVSTAVAWYQQKPGKAPKLLIYSHSYRYTGVPSRFSGSGSGTDFTLTISSLQPEDFAVYYCHQHYITPLTFGQGTKLEIK
notes: datopotamab VL 51, 89 substituted
